Measurements from patent publication US20130287781A1 (GlaxoSmithKline, published 2013).

How the values were obtained:
GST-human NOGO-A56 [1] = target: T1, GST-human NOGO-A56 (human); assay: direct ELISA, GST-human NOGO-A56 coated at 1.0 mcg/ml, purified antibody, OD490
T1 construct: Expressed in E. coli BL21 from pGEX-6P1 and purified on glutathione-sepharose; the GST tag is part of the protein in the assays; also called GST-Nogo-A 5+6; GST Nogo-A 5 + 6
Procedure: Wells were rinsed once with TBS+0.05% Tween (TBST) then incubated with 2% BSA in TBST to block non-specific binding sites at room temperature for 1 hour. Antibodies were diluted in TBST+2% BSA to 10 μg/ml and ½ dilutions made from this. Antibodies were added to wells in duplicate and incubated at room temperature for 1 hour. […] The wells were washed three times with TBST and then incubated with 100 μl OPD peroxidase substrate (Sigma) per well for 10 minutes. The colour reaction was stopped by the addition of 25 μl concentrated H₂SO₄. Optical density at 490 nm was measured using a plate reader. Background values read from wells with no antibody were subtracted.

GST-human NOGO-A56 [2] = target: T1, GST-human NOGO-A56; assay: SPR (Biacore) off-rate on NOGO chip, panel of H6FL CDR H3 variants with L13FL
GST-human NOGO-A56 [3] = target: T1, GST-human NOGO-A56; assay: SPR (Biacore), GST-human NOGO-A56 amine-coupled to CM5, antibody flowed over, 37 C
GST-human NOGO-A56 [4] = target: T1, GST-human NOGO-A56; assay: SPR (Biacore), GST-human NOGO-A56 amine-coupled to CM5, antibody flowed over, 25 C
Procedure: (§1) GST-human NOGO-A56 was immobilised to a CM5 chip by primary amine coupling using the Biacore Wizard program designed for targeted immobilisation levels. The CM5 sensor surface was activated by passing a solution of 50 mM N-hydroxy-succinimide (NHS) and 200 mM N-ethyl-N′-dimethylaminopropyl carbonide (EDC). Then GST-human NOGO-A56 in sodium acetate buffer, pH5.0 or pH 4.5, was passed over the chip and immobilised. After immobilisation was complete any still activated esters were blocked by an injection of 1M ethanolamine hydrochloride, pH8.5.
(§2) The anti-NOGO mAbs were diluted down in HBS-EP (10 mM HEPES, pH 7.4, 150 mM NaCl, 3 mM EDTA, and 0.005% P-20 surfactant) for the BIAcore 3000 or HBS-EP+ (10 mM HEPES, pH 7.4, 150 mM NaCl, 3 mM EDTA, and 0.05% P-20 surfactant) in the case of the T100 and binding studies were carried out at range of defined antibody concentrations. All runs were referenced against a blanked sensor surface (one that had been activated and blocked as described earlier but had no addition of ligand). Analysis of binding was carried out using the BIAevaluation kinetic analysis software version 4.1 for the BIAcore 3000 and T100 kinetic analysis software version 1.0. […] Unless otherwise stated, the BIAcore experiments were performed at 25° C.

GST-human NOGO-A56 [5] = target: T1, GST-human NOGO-A56; assay: as above; remark: listed apart in the source
GST-human NOGO-A56 [6] = target: T1, GST-human NOGO-A56; assay: as above; remark: listed apart in the source
Procedure: as §1, §2

T1 sequence (chain, as listed by the source limits assumed): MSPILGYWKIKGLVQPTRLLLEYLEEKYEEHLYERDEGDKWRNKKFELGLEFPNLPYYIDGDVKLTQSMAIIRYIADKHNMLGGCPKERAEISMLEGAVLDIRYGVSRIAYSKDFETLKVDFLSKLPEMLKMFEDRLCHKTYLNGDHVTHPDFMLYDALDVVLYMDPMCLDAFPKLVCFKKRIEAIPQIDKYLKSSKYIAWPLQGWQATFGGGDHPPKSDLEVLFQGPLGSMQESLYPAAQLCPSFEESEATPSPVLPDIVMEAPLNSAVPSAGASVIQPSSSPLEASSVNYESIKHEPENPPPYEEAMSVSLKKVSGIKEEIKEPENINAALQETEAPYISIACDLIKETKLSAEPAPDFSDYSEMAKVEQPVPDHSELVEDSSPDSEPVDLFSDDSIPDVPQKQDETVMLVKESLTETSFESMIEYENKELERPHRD

B1: H1L11 (antibody, human IgG1, kappa, V domains shown)
VH: QVQLVQSGAEVKKPGASVKVSCKASGYTFTSYWMHWVRQAPGQGLEWMGNINPSNGGTNYNEKFKSRVTMTRDTSTSTVYMELSSLRSEDTAVYYCELGQGYWGQGTLVTVSS
VL: DIVITQSPLSLPVTLGQPASISCRSSKSLLYKDGKTYLNWFQQRPGQSPQLLIYLMSTRASGVPDRFSGGGSGTDFTLKISRVEAEDVGVYYCQQLVEYPLTFGQGTKLEIKR
notes: CDR H3 GQGY; also called humanised 2A10 variant H1L11 of WO05/061544
GST-human NOGO-A56 [1]
  EC50 (read off the curve): ~0.2 µg/mL

B2: H6L13 variant with VH CDR3 GQLY (antibody, human IgG1, kappa, V domains shown)
VH: QVQLVQSGAEVKKPGASVKVSCKASGYTFTSYWMHWVRQAPGQGLEWIGNINPSNGGTNYNEKFKSRATMTRDTSTSTAYMELSSLRSEDTAVYYCELGQLYWGQGTLVTVSS
VL: DIVMTQSPLSLPVTLGQPASISCRSSKSLLYKDGKTYLNWFQQRPGQSPQLLIYLMSTRASGVPDRFSGGGSGTDFTLKISRVEAEDVGVYYCQQLVEYPLTFGQGTKLEIKR
notes: Single point variant of H6FL with L13FL
GST-human NOGO-A56 [2]
  koff: 0.0132 s⁻¹

B3: H6L13 variant with VH CDR3 RQGY (antibody, human IgG1, kappa, V domains shown)
VH: QVQLVQSGAEVKKPGASVKVSCKASGYTFTSYWMHWVRQAPGQGLEWIGNINPSNGGTNYNEKFKSRATMTRDTSTSTAYMELSSLRSEDTAVYYCELRQGYWGQGTLVTVSS
VL: DIVMTQSPLSLPVTLGQPASISCRSSKSLLYKDGKTYLNWFQQRPGQSPQLLIYLMSTRASGVPDRFSGGGSGTDFTLKISRVEAEDVGVYYCQQLVEYPLTFGQGTKLEIKR
notes: as for B2
GST-human NOGO-A56 [2]
  koff: 0.0175 s⁻¹

B4: H16L16 (antibody, human IgG1, kappa, V domains shown)
VH: QVQLVQSGAEVKKPGASVKVSCKASGYTFTSYWMHWVKQRPGQGLEWIGNINPSNGGTNYNEKFKSKATLTVDKSTSTAYMELSSLRSEDTAVYYCELGQGYWGQGTLVTVSS
VL: DIVMTQSPLSNPVTLGQPVSISCRSSKSLLYKDGKTYLNWFLQRPGQSPQLLIYLMSTRASGVPDRFSGGGSGTDFTLKISRVEAEDVGVYYCQQLVEYPLTFGQGTKLEIKR
notes: IgG1 (L235A, G237A) / kappa; CAMPATH-1H signal (1-19) left out
GST-human NOGO-A56 [3]
  Kd: 1.16 nM
  koff: 0.00616 s⁻¹
  kon: 5.31e+06 M⁻¹ s⁻¹
GST-human NOGO-A56 [1]
  EC50 (read off the curve): ~0.08 µg/mL
GST-human NOGO-A56 [4]
  Kd: 1.08 nM
  koff: 0.00372 s⁻¹
  kon: 3.43e+06 M⁻¹ s⁻¹

B5: H6L13 variant with VH CDR3 GLGY (antibody, human IgG1, kappa, V domains shown)
VH: QVQLVQSGAEVKKPGASVKVSCKASGYTFTSYWMHWVRQAPGQGLEWIGNINPSNGGTNYNEKFKSRATMTRDTSTSTAYMELSSLRSEDTAVYYCELGLGYWGQGTLVTVSS
VL: DIVMTQSPLSLPVTLGQPASISCRSSKSLLYKDGKTYLNWFQQRPGQSPQLLIYLMSTRASGVPDRFSGGGSGTDFTLKISRVEAEDVGVYYCQQLVEYPLTFGQGTKLEIKR
notes: as for B2
GST-human NOGO-A56 [2]
  koff: 0.019 s⁻¹

B6: H6L13 variant with VH CDR3 GSGY (antibody, human IgG1, kappa, V domains shown)
VH: QVQLVQSGAEVKKPGASVKVSCKASGYTFTSYWMHWVRQAPGQGLEWIGNINPSNGGTNYNEKFKSRATMTRDTSTSTAYMELSSLRSEDTAVYYCELGSGYWGQGTLVTVSS
VL: DIVMTQSPLSLPVTLGQPASISCRSSKSLLYKDGKTYLNWFQQRPGQSPQLLIYLMSTRASGVPDRFSGGGSGTDFTLKISRVEAEDVGVYYCQQLVEYPLTFGQGTKLEIKR
notes: as for B2
GST-human NOGO-A56 [2]
  koff: 0.0207 s⁻¹

B7: H6L13 variant with VH CDR3 GQGW (antibody, human IgG1, kappa, V domains shown)
VH: QVQLVQSGAEVKKPGASVKVSCKASGYTFTSYWMHWVRQAPGQGLEWIGNINPSNGGTNYNEKFKSRATMTRDTSTSTAYMELSSLRSEDTAVYYCELGQGWWGQGTLVTVSS
VL: DIVMTQSPLSLPVTLGQPASISCRSSKSLLYKDGKTYLNWFQQRPGQSPQLLIYLMSTRASGVPDRFSGGGSGTDFTLKISRVEAEDVGVYYCQQLVEYPLTFGQGTKLEIKR
notes: as for B2
GST-human NOGO-A56 [2]
  koff: 0.0216 s⁻¹

B8: H6L13 variant with VH CDR3 GIGY (antibody, human IgG1, kappa, V domains shown)
VH: QVQLVQSGAEVKKPGASVKVSCKASGYTFTSYWMHWVRQAPGQGLEWIGNINPSNGGTNYNEKFKSRATMTRDTSTSTAYMELSSLRSEDTAVYYCELGIGYWGQGTLVTVSS
VL: DIVMTQSPLSLPVTLGQPASISCRSSKSLLYKDGKTYLNWFQQRPGQSPQLLIYLMSTRASGVPDRFSGGGSGTDFTLKISRVEAEDVGVYYCQQLVEYPLTFGQGTKLEIKR
notes: as for B2
GST-human NOGO-A56 [2]
  koff: 0.0257 s⁻¹

B9: H6L13 variant with VH CDR3 GQYY (antibody, human IgG1, kappa, V domains shown)
VH: QVQLVQSGAEVKKPGASVKVSCKASGYTFTSYWMHWVRQAPGQGLEWIGNINPSNGGTNYNEKFKSRATMTRDTSTSTAYMELSSLRSEDTAVYYCELGQYYWGQGTLVTVSS
VL: DIVMTQSPLSLPVTLGQPASISCRSSKSLLYKDGKTYLNWFQQRPGQSPQLLIYLMSTRASGVPDRFSGGGSGTDFTLKISRVEAEDVGVYYCQQLVEYPLTFGQGTKLEIKR
notes: as for B2
GST-human NOGO-A56 [2]
  koff: 0.0328 s⁻¹

B10: H6L13 variant with VH CDR3 GAGY (antibody, human IgG1, kappa, V domains shown)
VH: QVQLVQSGAEVKKPGASVKVSCKASGYTFTSYWMHWVRQAPGQGLEWIGNINPSNGGTNYNEKFKSRATMTRDTSTSTAYMELSSLRSEDTAVYYCELGAGYWGQGTLVTVSS
VL: DIVMTQSPLSLPVTLGQPASISCRSSKSLLYKDGKTYLNWFQQRPGQSPQLLIYLMSTRASGVPDRFSGGGSGTDFTLKISRVEAEDVGVYYCQQLVEYPLTFGQGTKLEIKR
notes: as for B2
GST-human NOGO-A56 [2]
  koff: 0.0315 s⁻¹

B11: H6L13 variant with VH CDR3 GVGY (antibody, human IgG1, kappa, V domains shown)
VH: QVQLVQSGAEVKKPGASVKVSCKASGYTFTSYWMHWVRQAPGQGLEWIGNINPSNGGTNYNEKFKSRATMTRDTSTSTAYMELSSLRSEDTAVYYCELGVGYWGQGTLVTVSS
VL: DIVMTQSPLSLPVTLGQPASISCRSSKSLLYKDGKTYLNWFQQRPGQSPQLLIYLMSTRASGVPDRFSGGGSGTDFTLKISRVEAEDVGVYYCQQLVEYPLTFGQGTKLEIKR
notes: as for B2
GST-human NOGO-A56 [2]
  koff: 0.0178 s⁻¹

B12: H6L13 variant with VH CDR3 GQSY (antibody, human IgG1, kappa, V domains shown)
VH: QVQLVQSGAEVKKPGASVKVSCKASGYTFTSYWMHWVRQAPGQGLEWIGNINPSNGGTNYNEKFKSRATMTRDTSTSTAYMELSSLRSEDTAVYYCELGQSYWGQGTLVTVSS
VL: DIVMTQSPLSLPVTLGQPASISCRSSKSLLYKDGKTYLNWFQQRPGQSPQLLIYLMSTRASGVPDRFSGGGSGTDFTLKISRVEAEDVGVYYCQQLVEYPLTFGQGTKLEIKR
notes: as for B2
GST-human NOGO-A56 [2]
  koff: 0.0186 s⁻¹

B13: H6L13 variant with VH CDR3 GQFY (antibody, human IgG1, kappa, V domains shown)
VH: QVQLVQSGAEVKKPGASVKVSCKASGYTFTSYWMHWVRQAPGQGLEWIGNINPSNGGTNYNEKFKSRATMTRDTSTSTAYMELSSLRSEDTAVYYCELGQFYWGQGTLVTVSS
VL: DIVMTQSPLSLPVTLGQPASISCRSSKSLLYKDGKTYLNWFQQRPGQSPQLLIYLMSTRASGVPDRFSGGGSGTDFTLKISRVEAEDVGVYYCQQLVEYPLTFGQGTKLEIKR
notes: as for B2
GST-human NOGO-A56 [2]
  koff: 0.0335 s⁻¹

B14: H6L13 variant with VH CDR3 GQWY (antibody, human IgG1, kappa, V domains shown)
VH: QVQLVQSGAEVKKPGASVKVSCKASGYTFTSYWMHWVRQAPGQGLEWIGNINPSNGGTNYNEKFKSRATMTRDTSTSTAYMELSSLRSEDTAVYYCELGQWYWGQGTLVTVSS
VL: DIVMTQSPLSLPVTLGQPASISCRSSKSLLYKDGKTYLNWFQQRPGQSPQLLIYLMSTRASGVPDRFSGGGSGTDFTLKISRVEAEDVGVYYCQQLVEYPLTFGQGTKLEIKR
notes: as for B2
GST-human NOGO-A56 [2]
  koff: 0.0177 s⁻¹

B15: H6L13 variant with VH CDR3 GQNY (antibody, human IgG1, kappa, V domains shown)
VH: QVQLVQSGAEVKKPGASVKVSCKASGYTFTSYWMHWVRQAPGQGLEWIGNINPSNGGTNYNEKFKSRATMTRDTSTSTAYMELSSLRSEDTAVYYCELGQNYWGQGTLVTVSS
VL: DIVMTQSPLSLPVTLGQPASISCRSSKSLLYKDGKTYLNWFQQRPGQSPQLLIYLMSTRASGVPDRFSGGGSGTDFTLKISRVEAEDVGVYYCQQLVEYPLTFGQGTKLEIKR
notes: as for B2
GST-human NOGO-A56 [2]
  koff: 0.00966 s⁻¹

B16: H27L13 (antibody, human IgG1, kappa, V domains shown)
VH: QVQLVQSGAEVKKPGASVKVSCKASGYTFTSYWMHWVKQRPGQGLEWIGNINPSNGGTNYNEKFKSKATLTVDKSTSTAYMELSSLRSEDTAVYYCELMQGYWGQGTLVTVSS
VL: DIVMTQSPLSLPVTLGQPASISCRSSKSLLYKDGKTYLNWFQQRPGQSPQLLIYLMSTRASGVPDRFSGGGSGTDFTLKISRVEAEDVGVYYCQQLVEYPLTFGQGTKLEIKR
notes: as for B4
GST-human NOGO-A56 [5]
  Kd: 0.28 nM
  koff: 0.00183 s⁻¹
  kon: 6.58e+06 M⁻¹ s⁻¹
GST-human NOGO-A56 [6]
  Kd: 0.291 nM
  koff: 0.0018 s⁻¹
  kon: 6.2e+06 M⁻¹ s⁻¹
GST-human NOGO-A56 [3]
  Kd: 0.641 nM
  koff: 0.00422 s⁻¹
  kon: 6.58e+06 M⁻¹ s⁻¹
GST-human NOGO-A56 [1]
  EC50 (read off the curve): ~0.08 µg/mL
GST-human NOGO-A56 [4]
  Kd: 0.606 nM
  koff: 0.00213 s⁻¹
  kon: 3.5e+06 M⁻¹ s⁻¹

B17: H6L13 variant with VH CDR3 IQGY (antibody, human IgG1, kappa, V domains shown)
VH: QVQLVQSGAEVKKPGASVKVSCKASGYTFTSYWMHWVRQAPGQGLEWIGNINPSNGGTNYNEKFKSRATMTRDTSTSTAYMELSSLRSEDTAVYYCELIQGYWGQGTLVTVSS
VL: DIVMTQSPLSLPVTLGQPASISCRSSKSLLYKDGKTYLNWFQQRPGQSPQLLIYLMSTRASGVPDRFSGGGSGTDFTLKISRVEAEDVGVYYCQQLVEYPLTFGQGTKLEIKR
notes: as for B2
GST-human NOGO-A56 [2]
  koff: 0.0172 s⁻¹

B18: H6L13 variant with VH CDR3 GDGY (antibody, human IgG1, kappa, V domains shown)
VH: QVQLVQSGAEVKKPGASVKVSCKASGYTFTSYWMHWVRQAPGQGLEWIGNINPSNGGTNYNEKFKSRATMTRDTSTSTAYMELSSLRSEDTAVYYCELGDGYWGQGTLVTVSS
VL: DIVMTQSPLSLPVTLGQPASISCRSSKSLLYKDGKTYLNWFQQRPGQSPQLLIYLMSTRASGVPDRFSGGGSGTDFTLKISRVEAEDVGVYYCQQLVEYPLTFGQGTKLEIKR
notes: as for B2
GST-human NOGO-A56 [2]
  koff: 0.0212 s⁻¹
